# ChEMBL document CHEMBL1123179, “4-Amino-2-(substituted methyl)-2-butenoic acids: substrates and potent inhibitors of gamma-aminobutyric acid aminotransferase” (J Med Chem, 1986)
# Key:
# Conditions in all cases: Sus scrofa
# NC/C=C(\CO)C(=O)O [1] = experiment: Compound was tested for the inhibitory effect against Gamma-amino-N-butyrate transaminase from pig brain, activity expressed as Vmax
# NC/C=C(\CF)C(=O)O = experiment: (§1) Compound was tested for the inhibitory effect against Gamma-amino-N-butyrate transaminase from pig brain, activity expressed as Km
# NC/C=C(\CO)C(=O)O [2] = experiment: as §1
# Sequence of 4-aminobutyrate aminotransferase, mitochondrial (Sus scrofa), P80147 (P80147 whole entry): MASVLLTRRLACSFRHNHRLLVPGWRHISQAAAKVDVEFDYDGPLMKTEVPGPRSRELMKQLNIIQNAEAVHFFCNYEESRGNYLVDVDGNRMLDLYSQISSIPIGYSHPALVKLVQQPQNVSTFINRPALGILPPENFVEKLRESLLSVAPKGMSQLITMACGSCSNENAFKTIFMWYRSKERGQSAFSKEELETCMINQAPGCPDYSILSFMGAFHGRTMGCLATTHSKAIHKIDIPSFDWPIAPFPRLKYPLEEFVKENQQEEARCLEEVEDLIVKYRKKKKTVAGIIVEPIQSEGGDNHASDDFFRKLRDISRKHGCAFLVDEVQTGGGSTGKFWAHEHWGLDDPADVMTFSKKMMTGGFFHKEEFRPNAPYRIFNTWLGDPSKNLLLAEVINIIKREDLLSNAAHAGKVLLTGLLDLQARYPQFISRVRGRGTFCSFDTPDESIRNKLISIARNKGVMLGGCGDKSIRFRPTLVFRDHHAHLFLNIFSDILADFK
substance,measurement,setting,value
"4-aminobutyrate aminotransferase, mitochondrial (Sus scrofa), P80147",Vmax,NC/C=C(\CO)C(=O)O [1],0.012 µM/min/mg
same,Km,NC/C=C(\CF)C(=O)O,140 µM
same,Km,NC/C=C(\CO)C(=O)O [2],10 µM
